Experimental data: publication doi:10.1101/2023.07.17.549240

What was measured:
[1] = molecular target: T1, WRKY45 (Arabidopsis thaliana, UniProt Q9S763 1-147); assay: EMSA
[2] = molecular target: T1, WRKY45; assay: competition

T1 sequence (Q9S763 whole entry): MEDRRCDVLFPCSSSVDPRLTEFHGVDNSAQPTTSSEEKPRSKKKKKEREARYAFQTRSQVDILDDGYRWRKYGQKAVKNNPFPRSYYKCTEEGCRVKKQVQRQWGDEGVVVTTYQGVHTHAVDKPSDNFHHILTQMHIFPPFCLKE

Binder | binding result [1] | binding result [2]
PCS2 W-box1 (W1) probe (dsDNA) DNA 1: ATTGTCAGAGTTTGACTATGGAGCAAAC DNA 2: GTTTGCTCCATAGTCAAACTCTGACAAT | binds | –
PCS2 mW-box1 probe (dsDNA) DNA 1: ATTGTCAGAGTCGCGGAATGGAGCAAAC DNA 2: GTTTGCTCCATTCCGCGACTCTGACAAT | no binding | –
PCS2 W-box1 cold competitor (dsDNA) DNA 1: ATTGTCAGAGTTTGACTATGGAGCAAAC DNA 2: GTTTGCTCCATAGTCAAACTCTGACAAT | – | binds
PCS1 W-box probe (dsDNA) DNA 1: TACAATCCAAATTGACTGTAATTTGTTA DNA 2: TAACAAATTACAGTCAATTTGGATTGTA | no binding | –
